# Substitutions are numbered along the chain they refer to.
# B1: TCN-538 (3206_O17) (antibody, V domains shown)
# VH: QITLKESGPTLVKPTQTLTLTCVFSGFSLSITGVRVGWIRQPPGKALEWLALISWDDEKHYSPSLQSRLTITKDTSKNQVVLTMTNLDPVDTATYYCARSTDRGHVLRYFGWMLPGDAFDVWGQGTMVTVSS
# VL: DIVMTQSPDFLPVSLGERATINCKSSQRVLYSSNNKNYLAWYQLKPGQPPKLIIYWASTRESGVPDRFSGSGSGTEFTLTISSLQAEDVAVYYCQQYYSRPYTFGQGTKLEIK
# B2: TCN-523 (5248_A17) (antibody, V domains shown)
# VH: QVQLVQSGAEVKKPGSSVKVSCKASGGSFSNYAFSWVRQAPGQGLEWMGGTIPLLGTTNYAQKFQGRVTISADQFTSTAYMELGSLRSEDTAVYYCTRRKMTTAFDSWGQGTLVTVSS
# VL: QPVLTQPPSASASLGASVTLTCTLSSAYSNYKVDWYQQRPGKGPRFVMRVGTGGIVGSKGDGIPDRFSVLGSGLNRYLTIKNIQEEDESDYHCGADHGSGSNFVSPYVFGGGTKLTVL
# B3: TCN-530 (5248_H10a) (antibody, V domains shown)
# VH: QVQLVQSGAEVRKPGSSVKVSCKASGGPFMSYAIGWVRQAPGQGLEWMGGINPVFGRPHYAQKFQGRVTIATDDSTKTSYMELSSLTSEDTGMYYCASRYSRSSPGTFESWGQGTLVTVSS
# VL: EIVMTQFPATLSVSPGERVTLSCRASQSVSNNLAWYQQKPGQPPRLLIYDASTRATGVPAKFSGTGSGTEFTLSISSLQSEDFAVYYCQQYHNWPPSYSFGLGTKLEIK
# B4: TCN-553 (5261_C18) (antibody, V domains shown)
# VH: QVQVVQSGTEVKKPGSSVKVSCQTSGGRFMSYAITWVRQAPGQGLEWMGGIVPVFGTANYAQKFQGRVTITTDDSTRTAYMELSSLRSEDTAVYYCGFRYGSGYGFDSWGQGTLVTVSS
# VL: EIVLTQSPGTLSLSPGERATLSCRASQSVSSSYLAWYQKKPGQAPRLLIYGASTRATGIPDRFTGSGSGTDFTLSISRLEPEDFAVYYCQHFGTSVFTFGGGTKVEIK
# B5: TCN-534 (5249_B02) (antibody, V domains shown)
# VH: QVQLVQSGAEVKKPGSSVKVSCRESGGTFNGYTITWVRQAPGQGLEWMGGIIPMMGTVNYAQKLQGRVTITTDYFTKTAYMDLNNLRSEDTAMYYCVKIRYTGQQLLWGQGTLVTVSS
# VL: DIQMTQSPSTLSASIGDRVTITCRASQSIASWLAWYQQKPGKAPKLLIYEAVNLESGVPSRFSGSGSGTDFTLTISSLQPDDFATYFCQHYGTISQTFGGGTKVEIK
# B6: TCN-533 (5256_A17) (antibody, V domains shown)
# VH: QVQLVQSGADVKKPGSSVTVSCKASGGSFSNYGINWVRQAPGQGLEWMGGIIPLINAPNYAPKFQGRVTITADMFSNIVSLQLTSLRTDDTAVYYCARRKMTTAIDYWGQGTLVTVSS
# VL: QPVLSQPPSASASLGASVTLTCTLSSGFDNYQVAWYQQRPGKGPRFVMRVGNGGNVASKGDGIPDRFSVSGSGLNRYLTIKNIQEDDESDYYCGADHGSGNNFVSPYVFGGGTKLTVL
# B7: TCN-555 (5246_L16) (antibody, V domains shown)
# VH: QVQLVQSGAEVKRPGSSVKVSCTASGGIFRKNAISWVRQAPGQGLEWMGGIIAVFNTANYAQKFQNRVKITADESGNTAYMELSSLTSDDTAVYYCASHPKYFYGSGSYPDFWGQGTLVTVSS
# VL: QSALTQPRSVSGSPGQSITISCTGGSSDIGASNSVSWYQQHPGKAPKLVIFDVTERPSGVPHRFSGSKSGNTASLTVSGLQPDDEADYFCCAYGGKYLVVFGGGTKVTVL
# B8: TCN-563 (5237_B21) (antibody, V domains shown)
# VH: B7 VH with V5A, N66G, T87R
# VL: B7 VL with I18V, G25S, I29V, F51Y, D83E
# B9: TCN-552 (5249_I23) (antibody, V domains shown)
# VH: QVQVVQSGAEVKKPGSSVRVSCQASGGTFMNYAIIWVRRAPGQGLEWMGGIIPVFPTPNYAQMFQGRVTISTDESRSTSFLELTNLRYEDTAVYYCARRIYHGGNSGFDFWGQGTLVTVSS
# VL: EIVLTQSPATLSLSPGERATLSCRASQSVGNYLAWYQQKPGQAPRLLIYDSSNRAPGIPARFSGSGSGTDFTLTISSLAPEDFAVYYCQQRSKWPPMYSFGHGTKLEIK
# B10: TCN-551 (5243_D01) (antibody, V domains shown)
# VH: EVQLVQSGSEVKKPGESLKISCKGSGYSFSNYWIGWVRHMPGKGLEWMGIIYPGDSDTRYSPSFQGQVTMSADKSSSTVYLQWSSLKASDTAIYYCARRGGHSFGYGSGGDTHSEFDSWGQGTLVTVSS
# VL: QSVLTQSPSVSAAPGQKVTISCSGSDSNIGDYFVCWYQHLPGKPPQLLIYENNKRPSGIPDRFSGSKSGTSATLGITGIQTGDEADYYCATWDGSLSAWVFGGGTKLTVL
# B11: TCN-540 (5060_F05) (antibody, V domains shown)
# VH: QVQLVQSGGGVVQPGRSLRLSCAASGFTFSSYAMHWVRQAPGKGLEWVAIISYDGNDQYYTDSVKGRFTISRDSSKVYLQMHRLRPEDTAVYYCAKEFETSGYFHGSFDYWGQGILVTVSS
# VL: QSALTQPASVSGSPGQSITISCTGTSSDVGGYNYVSWYQQHPGKAPKLLIYEVTNWPSGVSNRFSGSKSGNTASLTISGLQAEDEADYYCSSYAGSSTWVFGGGTRVTVL
# B12: TCN-535 (5246_P19) (antibody, V domains shown)
# VH: QVQLVQSGSEVKKPGTSVKVSCTASGSVFTNYGISWVRQAPGQGLEWMGGIIPLFGAAKYAQKFQGRVTITADESTKTVYMELSRLTSKDTAIYFCAKAPRVYEYYFDQWGQGTPVTVSS
# VL: EIVLTQSPGTLSLSPGERATLSCRASQSVSSSQLAWYQQKPGQAPRLIIYGASTRATGIPDRFSGSGSGTDFTLTIGRLEPEDFAVFFCQQYSTSPPTFGQGTKVDFK
# B13: TCN-521 (3280_D18) (antibody, V domains shown)
# VH: EVQLVQSGGGLVQPGGSLRLACVVSGFTVTSNYITWVRQAPGKGLEWVSVIYSHGRAYYSASVNGRFTISRHTSKNTVYLEMNSLRPEDTAVYYCAGGGLVGGYDEYFFDYWGQGTLATVSS
# VL: ETVLTQSPGTLSLTPGERATLSCRVGQSVSGSHLAWYQQKPGQAPRLLIYGASSRATGIPDRFGGSVSGTDFTLTISRLEPEDSAVYYCQQYGDSRYTFGQGTKLEIK
# B14: TCN-537 (3194_D21) (antibody, V domains shown)
# VH: QVQLQQWGSGLLKPSETLSLTCAVYGGSFRDDYWTWIRQPPGKGLEWIGEINHSGRTNYNPSLKSRVTISVDTSLKQFSLKVISVTAADTAVYYCARGTSHVSRYFDWLPPTNWFDPWGQGTQVTVSS
# VL: DIVLTQSPGTLSLSPGERATLSCRASQSVSSSYLAWYQQKPGQAPRLVMYGAATRATGIPDRFSGSGSGPDFTLTISRLEPEDFAMYYCQQYGNSPITFGQGTRLEIK
# B15: TCN-546 (5089_L08) (antibody, V domains shown)
# VH: QVQLQQWGAGLLKPSETLSLTCGVYGGSLSDYYWSWIRQPPGKGLEWIGEINHSGGTNYNPSLKRRVTISVDTSKKQFSLKMNSVTAADTAVYYCARGTDPDTEVYCRAGNCAAFDFWGQGTLVTVSS
# VL: EIVLTQSPGTLSLSPGERATLSCRASHFVIGRAVAWYQQKPGQAPRLLIYGASSRATGIPDRFSGSGSGTDFTLTISRLETEDFAVFYCQHYGSSPRYAFGQGTKLEIK
# B16: TCN-542 (5079_A16) (antibody, V domains shown)
# VH: QVQLQESGPGLVKPSQTLSLTCTVSGGSISSGNYYWNWVRQHPGKGLEWIGYIYYRGSTFYNPSLKSRVTISIDTSKNQFSLRLSSVTAADTAVYYCAKDTRSSLDNYQYGMDVWGQGTTVTVSS
# VL: QTVVTQEPSLTVSPGGTVTLTCASSTGAVTSSYFPNWFQQKPGQAPRPLIYSTTIRHSWTPARFSGSLLGGKAALTLSGVQPEDEADYYCLLYSGGDPVAFGGGTKLTVL
# B17: TCN-545 (5082_I15) (antibody, V domains shown)
# VH: QVQLQQWGAGLLKPSETLSLSCAVFGGSFSDYYWTWIRQPPGKGLEWIGEIKHSGRTNYNPSLESRVTISVDTSKNQFSLKLSSVTAADTAIYYCARGTDPDTEGYCRSGSCSAFDFWGQGTLVTVSS
# VL: EIVLTQSPGTLSLSPGERATLSCRASHFVNYRSLAWYQQTPGQVPRLLIYGASTRATGIPDRFSGSGSGTDFTLTISRLEPEDFAVYFCQQYGGSPRYTFGQGTRLEIK
# B18: TCN-550 (5096_F06) (antibody, V domains shown)
# VH: QVQLQESGPGLVKPSETLSLTCTVSGASINSHYWSWIRQPPGKGLEWIGYVYYSGSTTYNPSLKSRVTLSVDTSKNQFSLNLSSVTAADTAFYYCARHPYDVLTGSGDWFDPWGQGTLVTVSS
# VL: SYVLTQAPSVSVAPGQTARITCGGNAIGSKKVHWYQHKAGQAPVLVVYDDTDRPSGIPERFSGSNSWSTATLTINRVEAGDEADYYCQVWDFTIDHVVFGGGTKLTVL
# B19: TCN-543 (5081_G23) (antibody, V domains shown)
# VH: QVHLVQSGAEVRKPGDSVKVSCKTSGYTFSTYPVAWVRQVPGQGLEWMGWISTYNGNTNFAQNFQGRVTLTTDTTTNTAYMEVRSLKFDDTAVYYCARVEGSYRDFWNNQNRFDPWGQGTLVTVSS
# VL: SYVLTQPPSVSVAPGQTARISCGGSNIGGKSVHWYQQKPGQAPVLVVYDDSGRPSGIPERFSGSNSGDTATLTISRVEAGDEADYFCQVWDNFGGVFGTGTKVTVL
# B20: TCN-557 (5081_A04) (antibody, V domains shown)
# VH: QVQLVQSGAEVKKPGASVKVSCKASGHTFTGYYIHWVRQAPGQGLEWMGWINPDSGATSSAQNFQGRVTMTGDTSSSTAYMELSRLSFDDTAVYYCARVLFTSPFDFWGEGTLVTVSS
# VL: QAVVTQEPSLAVSPGGTVTLTCGSSTGAVTRGHYPYWFQQKPGQAPRALIYDSAGNRHSWTPARFSGSLLGGKAALTLSGAQPEDEAEYYCLLSYSGVWVFGGGTKLTVL
# Target: recombinant soluble homotrimeric HA of A/common magpie/Hong Kong/5052/07 (H5N1) (Influenza A virus A/common magpie/Hong Kong/5052/2007 (H5N1))
# Test: HA microarray, BCC supernatant
# Conditions: remark: other sources report otherwise
row,Binder,Trimeric HA Binding RLU
1,B1,18700 RLU
2,B2,45800 RLU
3,B3,42500 RLU
4,B4,26000 RLU
5,B5,32500 RLU
6,B6,44500 RLU
7,B7,16100 RLU
8,B8,27500 RLU
9,B9,42200 RLU
10,B10,45700 RLU
11,B11,113 RLU
12,B12,45900 RLU
13,B13,13500 RLU
14,B14,18700 RLU

# Target: recombinant soluble homotrimeric HA, A/common magpie/Hong Kong/5052/07 (H5N1) (influenza A virus A/common magpie/Hong Kong/5052/2007 (H5N1))
# Test: microarray, trimeric HA, transfection supernatant
# Conditions: remark: other sources report otherwise
row,Binder,Trimeric HA Binding RLU
1,B1,3140 RLU
2,B15,1920 RLU
3,B16,1670 RLU
4,B4,39200 RLU
5,B7,33600 RLU
6,B9,34600 RLU
7,B17,1390 RLU
8,B11,1800 RLU
9,B18,993 RLU
10,B12,477 RLU
11,B19,1070 RLU
12,B14,2070 RLU
13,B20,54900 RLU
